Measurements published in publication PMC8804921.
Substitutions are numbered along the chain they refer to.

B1: pHSP70.3 EMSA HSE (C1 +HSE) (dsDNA)
DNA 1: TTACATAGCGAGCCATCGAACCTTCTCGAAACTCGAGTACAAGACTC
DNA 2: GAGTCTTGTACTCGAGTTTCGAGAAGGTTCGATGGCTCGCTATGTAA
B2: pHSP90.1 EMSA HSE (C1 +HSE) (dsDNA)
DNA 1: GAGTCTCGAAACGAAAAGAACTTTCTGGAATTCGTTTGCTCACAAAG
DNA 2: CTTTGTGAGCAAACGAATTCCAGAAAGTTCTTTTCGTTTCGAGACTC
B3: pHSP70.3 EMSA BRRE (C1 +BRRE) (dsDNA)
DNA 1: ATCCAACTCCAAAAGATCGTGCGGTTACATAGCGAGCCAT
DNA 2: ATGGCTCGCTATGTAACCGCACGATCTTTTGGAGTTGGAT
B4: pHSP90.1 EMSA BRRE (C1 +BRRE) (dsDNA)
DNA 1: TCCATCAGCTACAAAGTCGTGTGCGATTTTGAGTCGTTGT
DNA 2: ACAACGACTCAAAATCGCACACGACTTTGTAGCTGATGGA
B5: pHSP70.3 EMSA HSEmut (C2 -HSE) (dsDNA)
DNA 1: B1 DNA 1 with G18T, C25A, G28T
DNA 2: B1 DNA 2 with C20A, G23T, C30A

Tests used:
HSFA1a-MBP = HSFA1a-MBP (UniProt P41151 1-495); test: EMSA
Sequence of HSFA1a-MBP (P41151 whole entry): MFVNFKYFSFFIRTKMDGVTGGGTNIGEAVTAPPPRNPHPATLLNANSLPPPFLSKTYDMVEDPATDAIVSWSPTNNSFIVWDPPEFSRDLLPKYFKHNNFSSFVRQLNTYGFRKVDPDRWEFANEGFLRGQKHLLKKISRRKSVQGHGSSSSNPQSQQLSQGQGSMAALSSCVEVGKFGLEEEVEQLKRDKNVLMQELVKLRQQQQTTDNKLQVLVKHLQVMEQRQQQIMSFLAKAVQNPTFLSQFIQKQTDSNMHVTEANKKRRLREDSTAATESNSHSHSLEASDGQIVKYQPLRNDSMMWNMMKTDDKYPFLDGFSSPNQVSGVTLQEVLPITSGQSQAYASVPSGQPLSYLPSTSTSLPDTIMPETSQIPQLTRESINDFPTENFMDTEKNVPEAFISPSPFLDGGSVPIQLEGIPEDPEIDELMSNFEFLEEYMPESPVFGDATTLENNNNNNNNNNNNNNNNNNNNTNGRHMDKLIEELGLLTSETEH

[1] = target: T1, BES1 (BES1-GST / GST-BES1);HSFA1a-MBP (Arabidopsis thaliana?;Arabidopsis …, UniProt Q9LN63;P41151 1-335;1-495, |); test: EMSA
T1 sequence (Q9LN63 whole entry, chain 1 of 2): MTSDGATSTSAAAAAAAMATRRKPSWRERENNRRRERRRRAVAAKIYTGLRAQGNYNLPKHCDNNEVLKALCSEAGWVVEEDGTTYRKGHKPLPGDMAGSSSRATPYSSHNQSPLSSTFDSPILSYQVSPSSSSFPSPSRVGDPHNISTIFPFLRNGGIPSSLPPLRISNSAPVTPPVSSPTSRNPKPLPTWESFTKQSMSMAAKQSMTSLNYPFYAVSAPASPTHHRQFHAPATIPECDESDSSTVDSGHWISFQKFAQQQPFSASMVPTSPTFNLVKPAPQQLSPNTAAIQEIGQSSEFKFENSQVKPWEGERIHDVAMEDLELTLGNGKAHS
T1 sequence (P41151 whole entry, chain 2 of 2): as the sequence (P41151 whole entry) above

[2] = target: BES1 (BES1-GST / GST-BES1) (UniProt Q9LN63 1-335); test: EMSA
Sequence of BES1 (BES1-GST / GST-BES1) (Q9LN63 whole entry): as the sequence (Q9LN63 whole entry, chain 1 of 2) above

[3] = target: T1, BES1 (BES1-GST / GST-BES1);HSFA1a-MBP; test: competition

Binder | binding result (HSFA1a-MBP) | binding result [1] | binding result [2] | binding result [3]
B1 | binds | binds | – | –
B2 | binds | binds | – | –
B3 | – | – | binds | –
B4 | – | – | binds | –
B5 | – | – | – | no binding
